Measured values published in patent US7345160B2, “Aequorin and obelin mutants with differing wavelengths and bioluminescence” (University of Kentucky Research Foundation, priority 2004, dated 2008).
Values joined by “and” are separate entries in the source; they are usually repeats but may differ in a detail not shown here. Equal entries are not always repeated. Where two headings read alike, the source gives them in different places.

Legend:
[1] = in solution at 4° C. for over a month; cited from earlier work
[2] = Emission spectra (emission maximum) of purified aequorin mutants with coelenterazine analogues; assay type: physicochemical
Text: In order to detect the inventive aequorin mutants, the use of an instrument capable of detecting flash-type bioluminescence over a wide range of wavelengths is envisaged. For example, a fiber optic sensor collects the bioluminescence signal emitted by the aequorin and transmits it to a grating that directs the beam of light to onto an optical array detector. In one embodiment, the system to acquire the spectra from the flash kinetics of aequorin and obelin luminescence consists of a microtiter plate reader. The optical path of the instrument is replaced with a high collecting efficiency fiber optic bundle. This fiberoptic bundle carries the emitted light into an Oriel Instruments Fixed Imaging Compact Spectrograph, the dispersed light is then fed into an ANDOR cooled CCD detector. See for example the SpectroSystem By Sciencewares, Inc (East Falmouth, Mass.).
Cysteine free aequorin (Mutant S), Y132I Mutant S aequorin, Aeq5 (Mutant S with a cysteine at position 5), and wild type Aequorin were purified and multiple spectra taken and averaged (See FIG. 1). […] Mutant S had emission maximums ranging from 448 nm to 491 nm. Y132I Mutant S has emission maximums ranging from 453 nm to 487 nm. Aequorin 5 had emission maximums ranging from 466 nm to 491 nm. The greatest spread in emission maximum thus far has been between MutS/CTZ i and MutS/CTZ hcp (448 nm, 491 nm, respectively (43 nm range)). […] The greatest spread in emission maxima wavelengths so far with the same coelenterazine is CTZ hcp with Aeq5 (476 nm) and MutS (448 nm) being 28 nm. Also, the maximum spread with the same CTZ's and different aequorins is 19 nm for i, ip, and f.
Mutant S, Mutant S Y132I and Aeq 5 final emission spectrums were the result of the average of three trials. Wild type aequorins final spectrum was the result of two trials. All mutants, except Aeq5, were purified to >95% purity using SDS-PAGE and silver staining. All coelenterazine analogues were diluted to 100 micrograms/ML methanol. Solvent composition, coelenterazine concentration, temperature, and incubation time, were the same for all trials except with N coelenterazine, which required a higher concentration of aequorin than the other coelenterazines to show activity. Concentrations of the different mutants were not identical. Half life determination of Y132I Mut S with coelenterazines i, ip, h, hcp, cp, fcp, f, and native were 23, 0.9, 0.4, 0.2, 0.6, 0.7, 2.6, and 1.2 seconds, respectively.

[3] = general statement, cited from earlier work
[4] = Emission spectra of obelin and obelin mutants with coelenterazine analogues; assay type: physicochemical; conditions: all coelenterazine analogues
Text: Obelin mutants C75S/C51/S, C75S/C67, C158S, C151S, and wild type obelin were purified and multiple spectra taken and averaged (See FIG. 20).

B1: wild type aequorin: native recombinant aequorin encoded by SEQ ID NO: 1, purchased commercially (Aqualite from Molecular Probes) (protein, listed as Aequorea victoria)
chain: VKLTSDFDNPRWIGRHKHMFNFLDVNHNGKISLDEMVYKASDIVINNLGATPEQAKRHKDAVEAFFGGAGMKYGVETDWPAYIEGWKKLATDELEKYAKNEPTLIRIWGDALFDIVDKDQNGAITLDEWKAYTKAAGIIQSSEDCEETFRVCDIDESGQLDVDEMTRQHLGFWYTMDPACEKLYGGAVP
In the case of B1, the “original activity retained on storage” value [1] is given as 85%, the emission maximum ([2]; over all coelenterazine analogues (i, ip, h, hcp, cp, fcp, f, n, native)) is given as 472 nm and the emission maximum ([2]; over all coelenterazine analogues (i, ip, h, hcp, cp, fcp, f, n, native), listed as Wild type aequorin) is given as “the same emission maxima for all coelenterazines analogues”. For the same molecule, the emission maximum ([2]; over all coelenterazine analogues (i, ip, h, hcp, cp, fcp, f, n, native), listed as native recombinant aequorin) was 472 nm, the “emission wavelength of aequorin” value [3] was 469-472 nm and the “emission wavelength of aequorin” value ([3]; listed as aequorin) was 469 nm. The “emission wavelength of aequorin” value ([3]; listed as recombinant aequorin) was 469 nm.

B2: Mutant S: aequorin mutant where the three cysteine residues are replaced with serine (positions 145, 152, 180); SEQ ID NO: 4 (protein, listed as Aequorea victoria)
chain: VKLTSDFDNPRWIGRHKHMFNFLDVNHNGKISLDEMVYKASDIVINNLGATPEQAKRHKDAVEAFFGGAGMKYGVETDWPAYIEGWKKLATDELEKYAKNEPTLIRIWGDALFDIVDKDQNGAITLDEWKAYTKAAGIIQSSEDSEETFRVSDIDESGQLDVDEMTRQHLGFWYTMDPASEKLYGGAVP
With B2 the “spread in emission maximum between CTZ i and CTZ hcp” value ([2]; same protein, CTZ i vs CTZ hcp) was 43 nm, the emission maximum ([2]; with CTZ hcp, listed as MutS) was 491 nm and 448 nm and the emission maximum ([2]; with CTZ i) was 448 nm.

B3: Wild type obelin: bioluminescent protein from the marine hydroid Obelia longissima; SEQ ID NO: 6 (protein, listed as Obelia longissima)
chain: MSSKYAVKLKTDFDNPRWIKRHKHMFDFLDINGNGKITLDEIVSKASDDICAKLEATPEQTKRHQVCVEAFFRGCGMEYGKEIAFPQFLDGWKQLATSELKKWARNEPTLIREWGDAVFDIFDKDGSGTITLDEWKAYGKISGISPSQEDCEATFRHCDLDNSGDLDVDEMTRQHLGFWYTLDPEADGLYGNGVP
Work on B3 yielded an emission maxima [4] of 469 nm.
